Test results from patent US20130065819.

Legend:
[1] = molecular target: N-terminal FLAG tagged TOE1 mutant D282A
[2] = molecular target: N-terminal FLAG tagged TOE1 mutant D363A
[3] = molecular target: human TOE1 (Target of Egr1)
[4] = molecular target: N-terminal FLAG tagged TOE1 mutant D195A
[5] = molecular target: TOE1 mutated at the ExPASy-predicted caspase-1 cleavage site FTAD (position 214-217)
[6] = molecular target: N-terminal FLAG tagged TOE1 mutant D373A

B1: recombinant caspase-1 (Calbiochem) (protein)
chain: NPAMPTSSGSEGNVKLCSLEEAQRIWKQKSAEIYPIMDKSSRTRLALIICNEEFDSIPRRTGAEVDITGMTMLLQNLGYSVDVKKNLTASDMTTELEAFAHRPEHKTSDSTFLVFMSHGIREGICGKKHSEQVPDILQLNAIFNMLNTKNCPSLKDKPKVIIIQACRGDSPGVVWFKDSVGVSGNLSLPTTEEFEDDAIKKAHIEKDFIAFCSSTPDNVSWRHPTMGSVFIGRLIEHMQEYACSCDVEEIFRKVRFSFEQPDGRAQMPTTERVTLTRCFYLFPGH
B1 was tested, and the “in vitro caspase-1 cleavage of immunoprecipitated mutant, Western blot” value [1] was “two of these mutations were found to prevent the appearance of a cleavage product of TOE1 upon incubation with caspase-1. These consisted of the D195 and D282 residues within the sites GLID and DIHD respectively”, the “in vitro caspase-1 cleavage of immunoprecipitated mutant, Western blot” value [2] was “caspase-1 cleaves TOE1 at residues 363 and 373 as evidenced by the lack of a 17 kDa fragment in the TOE1 mutants containing an alanine at residues 363 and 373” and the “in vitro digestion of immunoprecipitated TOE1 with recombinant caspase-1, Western blot” value [3] was “We found that TOE1 was indeed processed by caspase-1, and generated multiple cleaved forms”. The “in vitro caspase-1 cleavage of immunoprecipitated mutant, Western blot” value [4] was “two of these mutations were found to prevent the appearance of a cleavage product of TOE1 upon incubation with caspase-1. These consisted of the D195 and D282 residues within the sites GLID and DIHD respectively”, the “in vitro caspase-1 cleavage of mutant, Western blot” value [5] was “when the caspase-1 cleavage site predicted using the ExPASy software was mutated (FTAD), in vitro cleavage was maintained” and the “in vitro caspase-1 cleavage of immunoprecipitated mutant, Western blot” value [6] was “caspase-1 cleaves TOE1 at residues 363 and 373 as evidenced by the lack of a 17 kDa fragment in the TOE1 mutants containing an alanine at residues 363 and 373”.
